Test results reported in IntAct's records for PubMed 17259181.

B1: Zinc finger protein ZAT7 (Arabidopsis thaliana (Mouse-ear cress)), Q42453 (parent)
chain: MVARSEEIVIVEEDTTAKCLMLLSRVGECGGGCGGDERVFRCKTCLKEFSSFQALGGHRASHKKLINSDNPSLLGSLSNKKTKTSHPCPICGVKFPMGQALGGHMRRHRNEKVSGSLVTRSFLPETTTVTALKKFSSGKRVACLDLDLDSMESLVNWKLELGRTISWS
partner: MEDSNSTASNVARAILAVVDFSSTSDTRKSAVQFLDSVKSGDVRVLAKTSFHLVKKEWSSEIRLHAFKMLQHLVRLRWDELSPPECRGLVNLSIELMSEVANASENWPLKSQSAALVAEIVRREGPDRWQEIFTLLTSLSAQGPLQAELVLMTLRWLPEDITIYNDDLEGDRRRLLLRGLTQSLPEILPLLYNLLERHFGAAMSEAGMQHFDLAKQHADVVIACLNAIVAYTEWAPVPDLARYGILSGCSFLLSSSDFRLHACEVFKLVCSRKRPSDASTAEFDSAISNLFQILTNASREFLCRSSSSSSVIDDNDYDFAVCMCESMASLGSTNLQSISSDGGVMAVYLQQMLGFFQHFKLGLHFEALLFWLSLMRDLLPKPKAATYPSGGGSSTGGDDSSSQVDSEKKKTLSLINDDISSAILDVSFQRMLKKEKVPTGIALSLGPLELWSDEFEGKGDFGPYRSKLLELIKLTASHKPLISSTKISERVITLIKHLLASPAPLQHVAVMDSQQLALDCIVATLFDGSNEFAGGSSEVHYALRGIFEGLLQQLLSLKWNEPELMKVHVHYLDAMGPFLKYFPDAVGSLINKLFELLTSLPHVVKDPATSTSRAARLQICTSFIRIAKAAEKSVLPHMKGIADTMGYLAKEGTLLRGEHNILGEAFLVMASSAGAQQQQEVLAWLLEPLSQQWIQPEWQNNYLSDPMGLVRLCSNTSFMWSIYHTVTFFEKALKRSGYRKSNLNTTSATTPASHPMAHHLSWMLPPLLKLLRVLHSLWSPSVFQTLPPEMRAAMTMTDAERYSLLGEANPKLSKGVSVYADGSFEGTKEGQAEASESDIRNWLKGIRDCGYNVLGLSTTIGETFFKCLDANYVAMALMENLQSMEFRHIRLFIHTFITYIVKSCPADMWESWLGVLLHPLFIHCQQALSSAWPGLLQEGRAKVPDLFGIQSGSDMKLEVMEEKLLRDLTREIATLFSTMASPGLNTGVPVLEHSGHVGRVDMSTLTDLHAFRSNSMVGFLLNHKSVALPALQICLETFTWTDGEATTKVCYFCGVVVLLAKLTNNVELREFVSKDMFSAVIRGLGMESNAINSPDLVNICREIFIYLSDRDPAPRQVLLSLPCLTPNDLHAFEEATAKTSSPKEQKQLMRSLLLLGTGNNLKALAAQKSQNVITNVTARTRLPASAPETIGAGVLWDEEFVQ

Variants of: B1
Conditions: with hasty_arath HST1, Q0WP44

effect of a mutation on the interaction	Variant
disrupting interaction	D145A;L146A;D147A
